The nature of data set [1]: Optical properties: excitation/emission maxima and absolute fluorescence quantum yield. Type of data set: physicochemical. Here is the method:
A dual-beam UV-VIS spectrophotometer (Lambda 40, Perkin Elmer) was used to determine the absorbance (Abs) of the compounds of the invention. Emission/excitation (Em/Ex) spectra and absolute fluorescence quantum yield (ϕ) measurements were carried out on a spectrofluorometer (FluoroLog-3 1IHR-320, Horiba Jobin Yvon) equipped with an F-3018 integrating sphere accessory. The measurements were performed using an excitation wavelength at maximum absorbance of different dyes, and the sample was excited with a 450 W Xenon Light Source. Detection was performed by photomultiplier tubes (PMT-NIR) cooled detector or by TBX-04 detector. Dye solutions were carefully prepared to have an absorbance lower than 0.1 (optical densities) to minimize re-absorption phenomena.
The compounds of the invention have been characterized in terms of their optical properties in vitro in aqueous medium (i.e., water/PBS pH 7.4) and in a clinical chemistry control serum (Seronorm, Sero SA), mimicking the chemical composition and optical properties of human serum. All dye or dye-conjugate solutions were freshly prepared. ICG and S0456 were used as commercial references.
In particular, the excitation and emission maxima and the absolute fluorescence quantum yield (Φ) of representative compounds of formula (I) and conjugates of formula (II) are shown in Table II.

Data set [2] concerns human colorectal adenocarcinoma cells HT-29. Put plainly: Tumor uptake in animal model of human colorectal cancer (subcutaneous), ex vivo optical imaging. The settings on record: ex vivo tumor-to-muscle, 24 h after i.v. administration, colorectal cancer bearing mice, n = 5/group. As to the method:
Tumor uptake experiments were performed in an animal model of human colorectal cancer (subcutaneous), using HT-29 cells, expressing low levels of integrin receptors. Briefly, the human colorectal adenocarcinoma cells HT-29 (ATCC, HTB-38) were cultured in McCoy's 5 A medium supplemented with 10% foetal bovine serum, 2 mM glutamine, 100 IU/mL penicillin and 100 μg/mL streptomycin. Male Athymic nude mice, 4-6 weeks of age (Envigo), underwent subcutaneous implantation (right flank) of about 5 million cells suspended in 0.1 mL of serum-free medium. Mice were housed 4 per cage with food and water ad libitum. […] Then, AIN-76a rodent diet irradiated (Research Diets), a special diet that reduces auto-fluorescence, was used up to the end of the experiments. Tumor growth was monitored by longitudinal assessments using a caliper up to the target size of 300-600 mm^3 (3-4 weeks after cell implantation). […]
In vivo imaging was performed under gas anesthesia (Sevofluorane 6-8% in oxygen). […] Regions of interest (ROIs) were drawn on the excised tumor and healthy reference tissue (muscle) to evaluate signal intensity (expressed as Average Radiant Efficiency). The ratio between the fluorescence signal in the tumor and in the muscle (background tissue) was then calculated to assess the tumor-to-background ratio (TBR).

Data set [3] deals with human pharyngeal carcinoma cells Detroit-562. Put plainly: Tumor uptake in animal model of human head and neck cancer (orthotopic), ex vivo optical imaging. The settings on record: ex vivo anterior vs posterior tongue, 24 h after i.v. 3 nmol/mouse, H&N tumor bearing mice, n = 5/group. Here is the method:
Tumor uptake experiments were performed in an animal model of human head and neck cancer (orthotopic), using Detroit-562 cells, overexpressing in particular integrin receptor αvβ6. Briefly, the human pharyngeal carcinoma cells Detroit-562 (ATCC, CCL-138) were cultured in Eagle's Minimum Essential Medium (EMEM) supplemented with 10% Fetal Bovine Serum (FBS), 2 mM glutamine, 100 IU/mL penicillin, 100 μg/mL streptomycin. Male Balb/c nu/nu mice, 4-6 weeks of age (Charles River Laboratories), underwent orthotopic implantation in the anterior portion of the tongue of about 2.5 million cells suspended in 0.03 mL di EMEM. Mice were housed 4 per cage with food and water ad libitum. Animals were fed with VRF1 (P) sterile diet (Special Diets Services Ltd) up to the end of the acclimation period (5 days). Then, AIN-76a rodent diet irradiated (Research Diets), a special diet that reduces auto-fluorescence, was used up to the end of the experiments. Tumor growth was monitored by longitudinal assessments using a caliper up to the target size of 10-20 mm^3 (7-10 days after cell implantation).
Imaging experiments were performed using the preclinical optical system IVIS Spectrum (Perkin Elmer). Animals were intravenously injected (lateral tail vein) with 3 nmol/mouse, at 24 hours post-administration were euthanized by anesthesia overdose, and the tongues were excised for ex vivo optical imaging. […]

The subject of data set [4] is human glioblastoma U87MG cells. The data set is described as follows: Tumor uptake in animal model of human glioblastoma (subcutaneous), ex vivo optical imaging. The settings on record: ex vivo tumor-to-muscle, 24 h after i.v. administration, glioblastoma tumor bearing mice, n = 5/group. As to the method:
Tumor uptake experiments were carried out in an animal model of human glioblastoma (subcutanous) overexpressing the integrin receptors, particularly αvβ3. Briefly, human glioblastoma U87MG cells (ATCC, HTB-14) were cultured in Eagle's Minimum Essential Medium (EMEM) supplemented with 10% Fetal Bovine Serum (FBS), 2 mM glutamine, 100 IU/mL penicillin, 100 μg/mL streptomycin. Male Balb/c nu/nu mice, 4-6 weeks of age (Charles River Laboratories), underwent subcutaneous implantation (right flank) of about 10 million cells suspended in 0.1 mL of EMEM. Mice were housed 4 per cage with food and water ad libitum. Animals were fed with VRF1 (P) sterile diet (Special Diets Services Ltd) up to the end of the acclimation period (5 days). Then, AIN-76a rodent diet irradiated (Research Diets), a special diet that reduces auto-fluorescence, was used up to the end of the experiments. Tumor growth was monitored by longitudinal assessments using a caliper up to the target size of 300-600 mm^3 (3-4 weeks after cell implantation). […] Regions of interest (ROIs) were drawn on the excised tumor and healthy muscle tissues to evaluate signal intensity (expressed as Average Radiant Efficiency). The ratio between the fluorescence signal in the tumor and in the muscle (background tissue) was then calculated to assess the contrast.

The target in data set [5] is T1, human recombinant integrin αvβ3 (Homo sapiens, UniProt P05106+P06756).
T1 construct: purchased R&D Systems
The data set is described as follows: Receptor binding affinity ELISA (Vitronectin-coated plates). The settings on record: duplicate, read-out: Receptor affinity (IC50, nM ± St. Dev.).
Experimental: Briefly, 96-well ELISA plates were coated overnight at 4° C. with the extracellular matrix (ECM) protein Vitronectin in carbonate buffer (15 mM Na2CO3, 35 mM NaHCO3, pH 9.6). Each well was then washed with PBS-T-buffer (phosphate-buffered saline/Tween20, 137 mM NaCl, 2.7 mM KCl, 10 mM Na2HPO4, 2 mM KH2PO4, 0.01% Tween20, pH 7.4) and blocked for 1 h at RT with TS-B-buffer (Tris-saline/BSA buffer; 20 mM Tris-HCl, 150 mM NaCl, 1 mM CaCl2, 1 mM MgCl2, 1 mM MnCl2, pH 7.5, 1% BSA). In the meantime, a dilution series of the compound and internal standard was prepared in an extra plate. After washing the assay plate three times with PBS-T, 50 μL of the dilution series were transferred to each well. 50 μL of a solution of human recombinant integrin αvβ3 (R&D Systems, 1 μg/mL) in TS-B-buffer was transferred to the wells and incubated for 1 h. The plate was washed three times with PBS-T buffer, and then primary antibody anti-αvβ3 was added to the plate. After incubation and washing three times with PBS-T, the secondary anti-IgG peroxidase-labeled antibody was added to the plate and incubated for 1 h. After washing the plate three times with PBS-T, the plate was developed by quick addition of 3,3′,5,5′-tetrametylbenzidine (TMB) and incubated for 5 min in the dark. The reaction was stopped with 3 M H2SO4, and the absorbance was measured at 450 nm with a plate reader (Victor3, Perkin Elmer).
The IC50 of the representative Compounds 1, 2 and 4 was tested in duplicate, and the resulting inhibition curves were analyzed using GraphPad Prism version 4.0 for Windows (GraphPad Software). The inflection point defines the IC50 value.

For data set [6], the target named is T2, human serum albumin (HSA) (Homo sapiens, UniProt P02768).
T2 construct: purchased Sigma Aldrich A9511
Put plainly: Binding affinity to human serum albumin (absorbance peak shift or ultrafiltration method). As to the method:
An analysis of the binding affinity of the compounds of the invention to human albumin was carried out and the results compared with ICG and […] as a reference. Binding affinity to human serum albumin (HSA; Sigma Aldrich, A9511) was measured using two methods, according to the level of binding affinity of the compounds. The first method, optimal for compounds which strongly interact with HSA, is based on the analysis of the absorbance spectrum peak shift after the incubation of the dye in solutions containing HSA. […] The measure was performed at the maximum absorbance wavelength of the shifted peak. The second method, optimal for compound with low affinity for HSA, is based on measuring the variation of the absorbance of solutions containing the dye and various concentrations of HSA after ultrafiltration. […] In the first method, ΔA/b corresponds to the absorbance measured for each sample, whereas in the second method ΔA/b is obtained subtracting the absorbance of the control sample (dye without HSA) to the absorbance of each other sample.

Data set [7] relates to WM-266-4 human melanoma cells. The data set is described as follows: Cell uptake by FACS in presence of human serum. Type of data set: cell-based. The settings on record: WM-266-4 cells; fluorescence intensity in absence of serum = 100%. As to the method:
The human melanoma cell line WM-266-4 (ATCC, CRL-1676) was used as in vitro model to assess the cell uptake of representative integrin-binding Compounds 1, 2 and 4, based on the high expression of the integrin receptors, particularly αvβ3, on the membrane of these cells (Capasso et al., PlosOne 2014).
Adherent cells at about 70% confluence were incubated with the Compounds 1 or 3 (1 μM) for 2 h at 37° C. (5% CO2) in presence of Dulbecco's Modified Eagle's Medium (DMEM) supplemented with 10% FBS, 2 mM glutamine, 100 IU/mL penicillin and 100 μg/mL streptomycin. […] Fluorescence Activated Cell Sorting (FACS) was used to detect the fluorescence signal within the cells, as measure of cell uptake. Samples were excited with an Argon laser and the emission detected using a 670 nm longpass filter. Values of fluorescence intensity were obtained from the histogram statistic produced by the instrument software.
The residual internalization was calculated by considering the value of fluorescence intensity in absence of the competitor as 100%.
Furthermore, to assess the effect of biological fluids on the cell uptake, parallel experiments were performed incubating the cells with a compounds of the invention in presence of human serum from male AB plasma (Sigma Aldrich, H4522). The residual internalization was calculated by considering the value of fluorescence intensity in absence of the serum as 100%. […]

Where [8] appears, read: Seronorm (clinical chemistry control serum).

Here are results for 3 molecules from patent US11851421B2, “Near-infrared cyanine dyes and conjugates thereof” (BRACCO IMAGING S.P.A., priority 2020, dated 2023).

T1 sequence (P06756 31-992 limits assumed): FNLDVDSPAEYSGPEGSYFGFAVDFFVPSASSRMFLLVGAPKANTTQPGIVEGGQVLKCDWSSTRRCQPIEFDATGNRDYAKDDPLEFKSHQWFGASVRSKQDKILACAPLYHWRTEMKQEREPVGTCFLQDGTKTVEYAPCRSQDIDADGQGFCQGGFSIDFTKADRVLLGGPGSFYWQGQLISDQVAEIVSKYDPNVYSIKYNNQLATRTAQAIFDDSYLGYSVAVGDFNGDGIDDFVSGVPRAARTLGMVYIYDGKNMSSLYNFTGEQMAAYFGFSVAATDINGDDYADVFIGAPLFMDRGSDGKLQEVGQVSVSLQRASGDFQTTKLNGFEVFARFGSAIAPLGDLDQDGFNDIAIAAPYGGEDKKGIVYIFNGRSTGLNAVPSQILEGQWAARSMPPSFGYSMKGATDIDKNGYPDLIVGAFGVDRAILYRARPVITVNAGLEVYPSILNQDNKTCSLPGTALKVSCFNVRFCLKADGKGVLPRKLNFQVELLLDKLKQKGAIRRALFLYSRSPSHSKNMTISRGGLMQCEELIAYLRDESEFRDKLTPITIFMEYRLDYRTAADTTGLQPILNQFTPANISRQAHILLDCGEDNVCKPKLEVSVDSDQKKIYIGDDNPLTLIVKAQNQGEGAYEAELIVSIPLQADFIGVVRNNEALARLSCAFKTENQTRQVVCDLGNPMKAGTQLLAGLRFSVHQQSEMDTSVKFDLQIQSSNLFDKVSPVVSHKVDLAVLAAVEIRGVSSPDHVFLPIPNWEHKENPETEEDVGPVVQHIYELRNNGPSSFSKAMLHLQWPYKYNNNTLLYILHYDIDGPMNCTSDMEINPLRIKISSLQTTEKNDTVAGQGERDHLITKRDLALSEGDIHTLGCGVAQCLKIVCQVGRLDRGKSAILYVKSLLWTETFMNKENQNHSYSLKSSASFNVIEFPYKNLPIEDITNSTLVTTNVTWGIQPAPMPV
T1 sequence (P05106 27-718 limits assumed): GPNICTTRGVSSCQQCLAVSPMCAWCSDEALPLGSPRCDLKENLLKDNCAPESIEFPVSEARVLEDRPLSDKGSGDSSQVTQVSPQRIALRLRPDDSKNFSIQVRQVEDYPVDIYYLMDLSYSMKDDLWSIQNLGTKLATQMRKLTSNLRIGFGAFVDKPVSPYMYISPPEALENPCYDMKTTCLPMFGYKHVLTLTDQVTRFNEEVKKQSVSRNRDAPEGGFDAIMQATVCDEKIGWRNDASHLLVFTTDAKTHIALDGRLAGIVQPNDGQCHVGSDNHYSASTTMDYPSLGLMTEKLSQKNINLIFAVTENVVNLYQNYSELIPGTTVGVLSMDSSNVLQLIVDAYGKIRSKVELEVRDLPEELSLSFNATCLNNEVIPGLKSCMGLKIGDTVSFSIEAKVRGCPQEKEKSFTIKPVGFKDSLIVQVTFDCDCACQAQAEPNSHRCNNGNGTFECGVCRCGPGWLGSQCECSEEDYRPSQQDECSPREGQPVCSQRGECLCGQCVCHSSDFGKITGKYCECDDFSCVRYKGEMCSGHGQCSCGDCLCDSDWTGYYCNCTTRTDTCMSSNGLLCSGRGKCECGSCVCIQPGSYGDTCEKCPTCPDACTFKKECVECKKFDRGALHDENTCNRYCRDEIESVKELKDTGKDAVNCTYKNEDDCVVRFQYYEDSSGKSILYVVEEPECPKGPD
T2 sequence (P02768 25-609): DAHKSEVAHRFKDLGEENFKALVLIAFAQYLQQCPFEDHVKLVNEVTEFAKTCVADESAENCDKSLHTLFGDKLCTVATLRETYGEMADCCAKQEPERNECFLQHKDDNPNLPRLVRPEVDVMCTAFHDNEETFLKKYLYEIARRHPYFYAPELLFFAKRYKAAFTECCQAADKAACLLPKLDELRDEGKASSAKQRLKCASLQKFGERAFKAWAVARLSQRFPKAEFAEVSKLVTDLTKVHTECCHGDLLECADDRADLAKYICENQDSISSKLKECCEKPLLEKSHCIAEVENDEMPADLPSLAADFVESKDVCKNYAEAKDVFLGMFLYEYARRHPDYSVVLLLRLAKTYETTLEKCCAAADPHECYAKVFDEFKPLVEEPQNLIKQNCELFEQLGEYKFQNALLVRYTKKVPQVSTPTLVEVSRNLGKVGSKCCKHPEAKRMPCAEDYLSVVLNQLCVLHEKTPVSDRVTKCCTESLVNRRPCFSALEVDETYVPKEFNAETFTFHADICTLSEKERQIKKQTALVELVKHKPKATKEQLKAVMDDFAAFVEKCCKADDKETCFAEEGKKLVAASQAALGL

Take `CC1(C)C(/C=C/C2=C(c3ccc(CCC(=O)NCCCCC4NC(=O)[C@@H](Cc5ccccc5)NC(=O)[C@H](CC(=O)O)NC(=O)CNC(=O)[C@H](CCCNC(=N)N)NC4=O)cc3)C(=C/C=C3/N(CCCCS(=O)(=O)O)c4ccc(C(=O)NCC(O)C(O)C(O)C(O)CO)cc4C3(C)C)/CCC2)=[N+](CCCCS(=O)(=O)[O-])c2ccc(C(=O)NCC(O)C(O)C(O)C(O)CO)cc21` (stereo partly shown) [Compound 1]: the “Max Em (emission maximum)” value in data set [1] (PBS pH 7.4) worked out at 788 nm. For the same molecule, the “Max Ex (excitation maximum)” value in data set [1] (PBS pH 7.4) worked out at 771 nm. In addition, the “Φ (absolute fluorescence quantum yield)” value in data set [1] (PBS pH 7.4) turned out to be 4.4%; in data set [1] (setting [8]), 10.9%. The “Tumor-to-background ratio (mean ± St. Dev)” value (shortened to “Tumor-to-background ratio”) in data set [2] is given as 4.30 ± 1.50; in data set [3], 2.27 ± 0.50; in data set [4], 6.92 ± 0.64. Moreover, in data set [5], the IC50 was 2.73 ± 0.5 nM.

For the molecule `CC1(C)C(/C=C/C2=C(Oc3ccc(S(=O)(=O)O)cc3)C(=C/C=C3/N(CCCCCC(=O)NCCCCC4NC(=O)[C@@H](Cc5ccccc5)NC(=O)[C@H](CC(=O)O)NC(=O)CNC(=O)[C@H](CCCNC(=N)N)NC4=O)c4ccc(C(=O)NCC(O)C(O)C(O)C(O)CO)cc4C3(C)C)/CCC2)=[N+](CCCCS(=O)(=O)[O-])c2ccc(C(=O)NCC(O)C(O)C(O)C(O)CO)cc21` (stereo partly shown) [Compound 2], in data set [1] (PBS pH 7.4), the “Max Em (emission maximum)” value is 805 nm, the “Max Ex (excitation maximum)” value is 783 nm and the “Φ (absolute fluorescence quantum yield)” value is 6.1%. For the same molecule, the “Φ (absolute fluorescence quantum yield)” value in data set [1] (setting [8]) is given as 7.5%. Moreover, the “Tumor-to-background ratio” value in data set [2] worked out at 4.20 ± 0.80. Besides, in data set [3], the “Tumor-to-background ratio” value is recorded as 2.26 ± 0.10. Moreover, the IC50 in data set [5] amounted to 1.64 ± 0.41 nM. Also, the Kd in data set [6] was 38200 nM. Further, the “Residual cell uptake in presence of human serum” value in data set [7] came out at 90%.

As to `CC1(C)C(/C=C/C2=C(Oc3ccccc3)C(=C/C=C3/N(CCCCCC(=O)NCCCCC4NC(=O)[C@@H](Cc5ccccc5)NC(=O)[C@H](CC(=O)O)NC(=O)CNC(=O)[C@H](CCCNC(=N)N)NC4=O)c4ccc(C(=O)NCC(O)C(O)C(O)C(O)CO)cc4C3(C)C)/CCC2)=[N+](CCCCS(=O)(=O)[O-])c2ccc(C(=O)NCC(O)C(O)C(O)C(O)CO)cc21` (stereo partly shown) [Compound 4], in data set [1] (PBS pH 7.4), the “Max Em (emission maximum)” value is 803 nm, the “Max Ex (excitation maximum)” value turned out to be 781 nm and the “Φ (absolute fluorescence quantum yield)” value stood at 5.0%. Besides, the “Φ (absolute fluorescence quantum yield)” value in data set [1] (setting [8]) was 9.9%. In data set [4], the “Tumor-to-background ratio” value was 7.64 ± 0.86. Also, the IC50 in data set [5] is 1.84 ± 0.38 nM. For the same molecule, the Kd in data set [6] worked out at 100000 nM. Further, the “Residual cell uptake in presence of human serum” value in data set [7] came out at 85%.
